We go through two molecules from patent US20220267415A1.

Holding throughout (details): remark: other sources report otherwise
The target of assay [1] is recombinant SARS-CoV-2 Receptor Binding Domain (RBD) with a his tag (ATUM, Cat. 65639.1.a) (SARS-CoV-2), P0DTC2. The experiment in a line: ELISA on coated RBD-his.
Assay [2] addresses T1, recombinant Spike protein (Sino Biologicals Cat #40589-V08B1) (SARS-CoV-2), P0DTC2. Put plainly: ELISA on coated recombinant spike.
In assay [3] the target is T1, recombinant Spike protein (Sino …). The experiment in a line: BLI (Octet), His-tagged S on Ni-NTA sensor, avidity.
Assay [4] has as its target T2, wild type RBD protein (generated as in Ku et al. 2021) (SARS-CoV-2), P0DTC2. The experiment in a line: binding KD on RBD protein, generally as Example 4.
Assay [5] concerns the target T2, wild type RBD protein (generated as in …). The experiment in a line: BLI competition, RBD on sensor, antibody then ACE2; competitor ACE2.

B1: anti-SARS-CoV2-14 IgG (lambda-VL-kappa-CL hybrid light chain) (antibody, V domains shown)
VH: EVQLQQSGPGLVKPSQTLSLTCAISGDSVSSNSAAWNWIRQSPSRGLEWLGRTYYRSKWYNDYAVSVKSRITINPDTSKNQFSLQLNSVTPEDTAVYYCAREEQQLVHDYYYYGMDVWGQGTMVTVSS
VL: QAVVTQPASVSGSPGQSITISCTGTSSDIGAYNYISWYQQHPGKAPKLIIYEVSNRPSGISYRFSGSKSGNTASLTISGLQAEDEANYYCSSYAGSISFGGGTKVTVL
For B1, in assay [1], the concentration for a half-maximal effect (EC50) is greater than 60 nM. The EC50 in assay [2] came out at 6.22 nM. In assay [3], the Kd came out at 1.39 nM, the koff came to 0.0013 s⁻¹ and the kon stood at 933000 M⁻¹ s⁻¹.

B2: anti-SARS-CoV2-14 IgG (full lambda light chain) (antibody, V domains shown)
VH: EVQLQQSGPGLVKPSQTLSLTCAISGDSVSSNSAAWNWIRQSPSRGLEWLGRTYYRSKWYNDYAVSVKSRITINPDTSKNQFSLQLNSVTPEDTAVYYCAREEQQLVHDYYYYGMDVWGQGTMVTVSS
VL: QAVVTQPASVSGSPGQSITISCTGTSSDIGAYNYISWYQQHPGKAPKLIIYEVSNRPSGISYRFSGSKSGNTASLTISGLQAEDEANYYCSSYAGSISFGGGTKVTVL
As to B2, in assay [4], the Kd was determined as 0.82 nM. The molecule further registered an EC50 in assay [5] of 18.6 nM.
